The target of assay [1] is T1, B-cat-Halo (beta-catenin HaloTag NanoBRET construct expressed in HEK293 cells) (UniProt P35222 1-781).
T1 sequence (looked up): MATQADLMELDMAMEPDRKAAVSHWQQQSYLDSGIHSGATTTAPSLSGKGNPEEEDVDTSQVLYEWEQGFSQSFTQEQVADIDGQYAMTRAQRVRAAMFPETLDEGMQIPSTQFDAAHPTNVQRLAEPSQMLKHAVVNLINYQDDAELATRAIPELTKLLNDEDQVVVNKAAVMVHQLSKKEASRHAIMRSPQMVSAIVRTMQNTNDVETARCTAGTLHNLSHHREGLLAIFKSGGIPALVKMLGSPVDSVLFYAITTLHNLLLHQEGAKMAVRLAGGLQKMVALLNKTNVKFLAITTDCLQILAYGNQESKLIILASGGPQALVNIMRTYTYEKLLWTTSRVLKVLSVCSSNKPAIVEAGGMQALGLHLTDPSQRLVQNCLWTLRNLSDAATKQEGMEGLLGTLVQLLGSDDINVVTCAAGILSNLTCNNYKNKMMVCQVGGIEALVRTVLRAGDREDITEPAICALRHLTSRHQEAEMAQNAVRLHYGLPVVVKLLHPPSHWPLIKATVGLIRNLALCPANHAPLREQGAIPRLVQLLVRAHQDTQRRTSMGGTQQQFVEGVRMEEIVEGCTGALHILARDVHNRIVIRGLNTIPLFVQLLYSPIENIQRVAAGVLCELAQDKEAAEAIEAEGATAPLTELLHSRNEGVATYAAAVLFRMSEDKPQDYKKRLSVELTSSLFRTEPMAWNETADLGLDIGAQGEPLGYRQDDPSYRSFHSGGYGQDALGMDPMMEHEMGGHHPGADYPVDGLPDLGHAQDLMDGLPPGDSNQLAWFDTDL
As to the kind of experiment: cell-based or functional assay.

Assay [2] addresses T2, full-length beta-Catenin (Uniprot ID P35222) (Homo sapiens (Human), UniProt P35222 2-781).
T2 construct: full-length; also called bCat; B-Catenin
T2 sequence: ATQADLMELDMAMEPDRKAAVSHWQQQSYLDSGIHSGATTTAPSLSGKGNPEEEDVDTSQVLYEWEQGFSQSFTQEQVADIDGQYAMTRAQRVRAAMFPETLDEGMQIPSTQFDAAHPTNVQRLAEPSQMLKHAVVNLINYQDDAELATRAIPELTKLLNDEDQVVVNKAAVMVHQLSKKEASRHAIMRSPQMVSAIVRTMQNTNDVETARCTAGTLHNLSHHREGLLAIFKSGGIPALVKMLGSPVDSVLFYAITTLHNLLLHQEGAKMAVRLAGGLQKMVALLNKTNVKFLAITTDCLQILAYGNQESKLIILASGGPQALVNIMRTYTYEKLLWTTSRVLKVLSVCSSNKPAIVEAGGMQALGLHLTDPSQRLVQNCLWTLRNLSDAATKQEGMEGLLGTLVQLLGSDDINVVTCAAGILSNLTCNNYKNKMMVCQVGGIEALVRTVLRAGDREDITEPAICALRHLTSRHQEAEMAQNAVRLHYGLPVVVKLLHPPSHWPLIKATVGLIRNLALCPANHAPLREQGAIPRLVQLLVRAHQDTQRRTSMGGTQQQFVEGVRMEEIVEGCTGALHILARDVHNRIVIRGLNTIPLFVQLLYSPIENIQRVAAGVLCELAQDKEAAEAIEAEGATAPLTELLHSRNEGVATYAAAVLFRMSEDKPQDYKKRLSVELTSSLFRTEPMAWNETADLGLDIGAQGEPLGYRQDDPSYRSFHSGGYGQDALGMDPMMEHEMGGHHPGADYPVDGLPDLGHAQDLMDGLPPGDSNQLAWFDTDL
As to the kind of experiment: fluorescence polarization competition; displaces 5FAM-TCF4(10-53) from full-length beta-catenin. As to the method: The plate was incubated protected from light for 60 minutes at 20° C. prior to read. Reads were performed on a CLARIOstar plate reader (BMG Labtech) in duplicate, and data were fitted to a 1:1 binding model with hill slope using an in-house script. All provided concentrations are final concentrations.

Starred links: 1 amine or outer side, 2 acyl side, 3 side chain; linkers in the order of their positions; H or OH if unused. Positions of bridges follow the written chain, without caps; N, C: chain ends. Non-standard residues stand in square brackets, D forms with d. Primed or numbered codes have the meaning given here. B5(15) = 2-amino-2-(pent-4-en-1-yl)hept-6-enoic acid (2,2-bis(4-pentenyl)glycine), stitching residue bearing two staples, C=CCCCC(CCCC=C)(N[*:1])C(=O)[*:2]; B5(23) = 2-amino-2-(pent-4-en-1-yl)hept-6-enoic acid (2,2-bis(4-pentenyl)glycine), stitching residue, C=CCCCC(CCCC=C)(N[*:1])C(=O)[*:2]; Bta = N[C@@H](Cc1csc2ccccc12)C(=O)O; αAllylPro = C=CC[C@@]1(C(=O)O)CCCN1; S8 = C=CCCCCCC[C@](C)(N)C(=O)O; hSer = N[C@@H](CCO)C(=O)O

B1: I-1532 (peptide)
peptide: XDNXDEAAFQXFXQ
modifications: not fully specified; N-terminal Ac; PL3 at 1, B5 at 4, S8 at 11 (staples PL3-B5 and B5-S8 by olefin metathesis); BztA at 13; C-terminal NH2
notes: Stapled peptide composition; Same description as I-1531; separate, later eluting HPLC peak (staple isomer); also called Ac-PL3-Asp-Asn-B5-Asp-Glu-Ala-Ala-Phe-Gln-S8-Phe-BztA-Gln-NH2
In the case of B1, the “NanoBRET Abs IC50” value in assay [1] was more than 20000 nM. This molecule displayed a half-maximal inhibitory concentration (IC50) in assay [2] of 49 nM.

B2: I-1534 (peptide)
peptide: Ac-[αAllylPro]DN[B5(15)]DEAAF[hSer][S8]F[Bta]Q-NH2
modifications: staple 1-4, 4-11; not fully specified; printed as Ac-PL3-Asp-Asn-B5-Asp-Glu-Ala-Ala-Phe-Hse-S8-Phe-BztA-Gln-NH2
notes: Stapled peptide composition; Same description as I-1535; earlier eluting HPLC peak (staple isomer); also called Ac-PL3-Asp-Asn-B5-Asp-Glu-Ala-Ala-Phe-Hse-S8-Phe-BztA-Gln-NH2
Consider B2, for which the “NanoBRET Abs IC50” value in assay [1] is more than 20000 nM. In assay [2], this molecule yielded a concentration for half-maximal inhibition (IC50) of 181 nM.

B3: I-1552 (peptide)
peptide: Ac-[αAllylPro]DK[B5(23)]DEAAFQ[S8]F[Bta]Q-NH2
modifications: staple 1-4, 4-11
notes: Stapled peptide composition; also called Ac-PL3-Asp-Lys-B5-Asp-Glu-Ala-Ala-Phe-Gln-S8-Phe-BztA-Gln-NH2
Turning to B3, in assay [1], the “NanoBRET Abs IC50” value was more than 20000 nM. Moreover, in assay [2], the half-inhibitory concentration (IC50) was 56 nM.

B4: I-1547 (peptide)
peptide: Ac-[αAllylPro]D[hSer][B5(15)]DEAAF[hSer][S8]F[Bta]Q-NH2
modifications: staple 1-4, 4-11; not fully specified; printed as Ac-PL3-Asp-Hse-B5-Asp-Glu-Ala-Ala-Phe-Hse-S8-Phe-BztA-Gln-NH2
notes: Stapled peptide composition; Same description as I-1548; earlier eluting HPLC peak (staple isomer); also called Ac-PL3-Asp-Hse-B5-Asp-Glu-Ala-Ala-Phe-Hse-S8-Phe-BztA-Gln-NH2
With B4, the “NanoBRET Abs IC50” value in assay [1] is more than 20000 nM. Also, the IC50 in assay [2] was determined as 68 nM.

B5: I-1539 (peptide)
peptide: XDQXDEAAFQXFXQ
modifications: not fully specified; N-terminal Ac; PL3 at 1, B5 at 4, S8 at 11 (staples PL3-B5 and B5-S8 by olefin metathesis); BztA at 13; C-terminal NH2
notes: Stapled peptide composition; earlier eluting HPLC peak (staple isomer); also called Ac-PL3-Asp-Gln-B5-Asp-Glu-Ala-Ala-Phe-Gln-S8-Phe-BztA-Gln-NH2
Turning to B5, the “NanoBRET Abs IC50” value in assay [1] was more than 20000 nM. This molecule also returned an IC50 in assay [2] of 36 nM.

B6: I-1545 (peptide)
peptide: XDSXDEAAFQXFXQ
modifications: not fully specified; N-terminal Ac; PL3 at 1, B5 at 4, S8 at 11 (staples PL3-B5 and B5-S8 by olefin metathesis); Hse at 3; BztA at 13; C-terminal NH2
notes: Stapled peptide composition; later eluting HPLC peak (staple isomer); also called Ac-PL3-Asp-Hse-B5-Asp-Glu-Ala-Ala-Phe-Gln-S8-Phe-BztA-Gln-NH2
Take B6: the “NanoBRET Abs IC50” value in assay [1] is more than 20000 nM. Besides, the IC50 in assay [2] amounted to 26 nM.

B7: I-1541 (peptide)
peptide: Ac-[αAllylPro]DQ[B5(15)]DEAAFL[S8]F[Bta]Q-NH2
modifications: staple 1-4, 4-11
notes: Stapled peptide composition; also called Ac-PL3-Asp-Gln-B5-Asp-Glu-Ala-Ala-Phe-Leu-S8-Phe-BztA-Gln-NH2
Consider B7, for which the “NanoBRET Abs IC50” value in assay [1] turned out to be 34700 nM. In addition, the half-maximal inhibitory concentration (IC50) in assay [2] was 39 nM.

B8: I-1550 (peptide)
peptide: Ac-[αAllylPro]DF[B5(23)]DEAAFL[S8]F[Bta]Q-NH2
modifications: staple 1-4, 4-11
notes: Stapled peptide composition; also called Ac-PL3-Asp-Phe-B5-Asp-Glu-Ala-Ala-Phe-Leu-S8-Phe-BztA-Gln-NH2
B8: in assay [1], the “NanoBRET Abs IC50” value stood at 15300 nM. In assay [2], this molecule came in with an IC50 of 22 nM.

B9: I-1546 (peptide)
peptide: Ac-[αAllylPro]D[hSer][B5(15)]DEAAFL[S8]F[Bta]Q-NH2
modifications: staple 1-4, 4-11
notes: Stapled peptide composition; also called Ac-PL3-Asp-Hse-B5-Asp-Glu-Ala-Ala-Phe-Leu-S8-Phe-BztA-Gln-NH2
Turning to B9, the “NanoBRET Abs IC50” value in assay [1] came to 37900 nM. Also, in assay [2], the IC50 worked out at 71 nM.

B10: I-1540 (peptide)
peptide: XDQXDEAAFQXFXQ
modifications: not fully specified; N-terminal Ac; PL3 at 1, B5 at 4, S8 at 11 (staples PL3-B5 and B5-S8 by olefin metathesis); BztA at 13; C-terminal NH2
notes: Stapled peptide composition; Same description as I-1539; later eluting HPLC peak (staple isomer); also called Ac-PL3-Asp-Gln-B5-Asp-Glu-Ala-Ala-Phe-Gln-S8-Phe-BztA-Gln-NH2
Regarding B10, the “NanoBRET Abs IC50” value in assay [1] is 42400 nM. The molecule further yielded an IC50 in assay [2] of 17 nM.

B11: I-1551 (peptide)
peptide: Ac-[αAllylPro]DF[B5(23)]DEAAF[hSer][S8]F[Bta]Q-NH2
modifications: staple 1-4, 4-11
notes: Stapled peptide composition; also called Ac-PL3-Asp-Phe-B5-Asp-Glu-Ala-Ala-Phe-Hse-S8-Phe-BztA-Gln-NH2
Turning to B11, the “NanoBRET Abs IC50” value in assay [1] was 19800 nM. For the same molecule, the IC50 in assay [2] was 16 nM.

B12: I-1533 (peptide)
peptide: Ac-[αAllylPro]DN[B5(15)]DEAAFL[S8]F[Bta]Q-NH2
modifications: staple 1-4, 4-11
notes: Stapled peptide composition; also called Ac-PL3-Asp-Asn-B5-Asp-Glu-Ala-Ala-Phe-Leu-S8-Phe-BztA-Gln-NH2
B12: in assay [1], the “NanoBRET Abs IC50” value is more than 20000 nM. For the same molecule, the half-inhibitory concentration (IC50) in assay [2] was determined as 76 nM.

B13: I-1535 (peptide)
peptide: Ac-[αAllylPro]DN[B5(15)]DEAAF[hSer][S8]F[Bta]Q-NH2
modifications: staple 1-4, 4-11; not fully specified; printed as Ac-PL3-Asp-Asn-B5-Asp-Glu-Ala-Ala-Phe-Hse-S8-Phe-BztA-Gln-NH2
notes: Stapled peptide composition; later eluting HPLC peak (staple isomer); also called Ac-PL3-Asp-Asn-B5-Asp-Glu-Ala-Ala-Phe-Hse-S8-Phe-BztA-Gln-NH2
Regarding B13, the “NanoBRET Abs IC50” value in assay [1] is more than 20000 nM. The IC50 in assay [2] stood at 72 nM.

Source of the values: patent US20240116985A1 (published 2024).
